{"source": "patent US20140094415A1", "target": "HIS-PDZ1-2 protein (PSD-95 PDZ1-2 tandem) (human) (UniProt P78352)", "test": "fluorescence polarization, heterologous competition against AB143 probe", "data": [{"substance": "Tat-NR2B9c (peptide)", "values": [{"measurement": "Ki", "result": 4.6, "unit": "µM"}]}]}
